# “And” between values parts separate entries of the source, which are not always exact repeats. Identical values can stand only once.
# What was measured:
# [1] = Size exclusion chromatography of DMPC-based peptide nanoparticles; format: physicochemical; settings: construct 300 μM, PBS, overnight, Superdex 200, standard curve of four globular proteins
# [2] = thought: two apoA-I molecules (10 helices/molecule) reside in discoidal HDL particles; cited from earlier work
# plasma total cholesterol = settings: cited from earlier work
# [3] = cited from earlier work
substance,measurement,setting,value
"apoA-I: Apolipoprotein A-I, the primary structural protein within HDL particles",SEC Stokes diameter,[1],15 nm and 10 nm
same,helices per particle (value in parentheses),[2],20
same,"reduction in plasma cholesterol levels, in words",plasma total cholesterol,neither apoA-I nor rHDLs cause significant reduction
same,plasma half-life in mice,[3],11 h
